In one test the target is T1, mouse pathogenic prion protein PrP^Sc (RML, in infected Balb-c mouse brain homogenate) (mouse), P04925.
T1 sequence (P04925 23-230 limits assumed): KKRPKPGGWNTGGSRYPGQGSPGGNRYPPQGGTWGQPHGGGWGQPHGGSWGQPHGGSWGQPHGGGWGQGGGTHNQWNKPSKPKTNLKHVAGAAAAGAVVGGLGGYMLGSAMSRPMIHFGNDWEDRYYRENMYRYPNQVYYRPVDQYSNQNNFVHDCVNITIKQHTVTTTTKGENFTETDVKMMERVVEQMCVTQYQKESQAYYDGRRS
Assay: not given
For GGGKARPKPGG (modifications not checked) [peptide reagent of SEQ ID NO:105], the ELISA A405 nm was 0.256 A405 nm.
On the same count and under the same terms, the same measure for GGGKKRPAPGG (modifications not checked) [peptide reagent of SEQ ID NO:107]: 0.578 A405 nm; for GGGKKAPKPGG (modifications not checked) [peptide reagent of SEQ ID NO:106]: 0.268 A405 nm.

The target in the next test is T1, mouse pathogenic prion protein PrP^Sc …. The test is described as follows: bead pull-down from PrPSc+ mouse brain homogenate; ELISA.
With GGGAGAAAAGAVVGGLGG (modifications not checked) [peptide reagent of SEQ ID NO:56], the ELISA A405 nm amounted to 0.313 A405 nm.
On the same count and under the same terms, the same measure for GGGKPSKPK (modifications not checked) [peptide reagent of SEQ ID NO:80]: 0.225 A405 nm; for GGGKKRPKPGGGKKRPKPGG (modifications not checked) [peptide reagent of SEQ ID NO:72 (tandem repeat)]: 0.522 A405 nm; for GGGKKKKKKKK (modifications not checked) [peptide reagent of SEQ ID NO:85]: 0.53 A405 nm.
For the molecule GGGNKPSKPK (modifications not checked) [peptide reagent of SEQ ID NO:79], the ELISA A405 nm was 0.24 A405 nm.
Still for that read-out and setting: the same measure for GGGGPKRKGPK (modifications not checked) [peptide reagent of SEQ ID NO:73]: 1.06 A405 nm; for GGGKKRAKAGG (modifications not checked) [peptide reagent of SEQ ID NO:98]: 1.46 A405 nm; for KKKAGAAAAGAVVGGLGG (modifications not checked) [peptide reagent of SEQ ID NO:65]: 0.635 A405 nm.

The record behind these values is US20060035242A1.
